Key:
[1] = system: HeLa Kyoto; experiment: solubility change mitosis vs G1/S (difference of NP-40 vs SDS log2 ratios) (log2 ratio difference); higher = more soluble in mitosis
[2] = system: HeLa Kyoto; experiment: thermal stability score vs G1/S (z-score of summed log2 fold changes over temperatures); higher = more thermally stable than in G1/S
[3] = system: HeLa Kyoto; experiment: melting temperature (median over replicates), in situ; higher = more thermally stable
[4] = system: HeLa Kyoto; experiment: solubility in G1/S (NP-40 vs SDS abundance) (log2 ratio); higher = more soluble; details: cell cycle stage: G1/S
[5] = cell cycle stage: early G1 (4.5 h after nocodazole release)
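Wherever melting temperature (median over replicates), in situ is given: HeLa Kyoto cells synchronized by double thymidine or nocodazole block, proteins quantified by TMT10plex mass spectrometry, three independent biological replicates.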
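Wherever solubility change mitosis vs G1/S (difference of NP-40 vs SDS log2 ratios) is given: synchronized HeLa Kyoto cells (double thymidine block for G1/S, nocodazole release for mitosis), protein amounts in NP-40 versus SDS lysates quantified by mass spectrometry, three biological replicates.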
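Wherever solubility in G1/S (NP-40 vs SDS abundance) is given: HeLa Kyoto cells arrested at G1/S by double thymidine block, proteins quantified by TMT10plex mass spectrometry in mild NP-40 versus SDS extracts, three biological replicates.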
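Wherever thermal stability score vs G1/S (z-score of summed log2 fold changes over temperatures) is given: synchronized HeLa Kyoto cells, proteins quantified by TMT10plex mass spectrometry, three biological replicates, mitosis taken 0.5 h after nocodazole release, G1/S directly after double thymidine block.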

MSI2, sequence (chain, as listed by the source): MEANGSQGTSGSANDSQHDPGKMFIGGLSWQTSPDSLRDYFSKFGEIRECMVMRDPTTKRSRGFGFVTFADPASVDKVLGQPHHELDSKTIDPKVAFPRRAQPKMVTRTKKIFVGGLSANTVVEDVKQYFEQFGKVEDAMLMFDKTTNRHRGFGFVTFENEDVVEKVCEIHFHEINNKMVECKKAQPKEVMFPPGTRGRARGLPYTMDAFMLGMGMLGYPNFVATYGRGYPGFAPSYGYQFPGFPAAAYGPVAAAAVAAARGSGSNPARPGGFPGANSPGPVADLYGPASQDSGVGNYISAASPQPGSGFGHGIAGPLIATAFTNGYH

Row | Substance | solubility change mitosis (log2) [1] | thermal stability score [2, 5] | thermal stability score ([2]; cell cycle stage: mitosis) | melting temperature ([3]; cell cycle stage: G1/S) | melting temperature ([3]; cell cycle stage: mitosis) | solubility in G1/S (log2) [4]
1 | MSGAALGLEIVFVFFLALFLLHRYGDFKKQHRLVIIGTLLAWYLCFLIVFILPLDVSTTIYNRCKHAAANSSPPENSNITGLYATANPVPSQHPCFKPWSYIPDGIMPIFWRVVYWTSQFLTWILLPFMQSYARSGGFSITGKIKTALIENAIYYGTYLLIFGAFLIYVAVNPHLHLEWNQLQTIGIAAANTWGLFLLVLLLGYGLVEIPRSYWNGAKRGYLLMKTYFKAAKLMTEKADAEENLEDAMEEVRKVNESIKYNHPLRKCVDTILKKCPTEYQEKMGRNMDDYEDFDEKHSIYPSEKSLVKLHKQVIYSVQRHRRTQVQWQILLEQAFYLEDVAKNETSATHQFVHTFQSPEPENRFIQYFYNPTFEWYWECLLRPWFYKILAVVLSIFSVIVVWSECTFFSTTPVLSLFAVFIQLAEKTYNYIYIEIACFLSIFFLSICVYSTVFRIRVFNYYYLASHHQTDAYSLLFSGMLFCRLTPPLCLNFLGLTHMDSSISHKNTQPTAYTSIMGSMKVLSFIADGFYIYYPMLVVILCIATYFSLGTRCLNLLGFQQFMGDDDMTSDLVNEGKELIRKEKRKRQRQEEGENRRREWKERYGHNREDSTRNRNIHTDPKESNFSDVNTNRSAFKYTRANNRTERDRIELLQDAEPLDFNAETFTDDPLESESGRYQPGGRYLSMSRSDIFNDV [LMBRD2] | -0.00686 | -0.0528 | -1.48 | 55.4 °C | 53.8 °C | -0.331
2 | MSGEENPASKPTPVQDVQGDGRWMSLHHRFVADSKDKEPEVVFIGDSLVQLMHQCEIWRELFSPLHALNFGIGGDGTQHVLWRLENGELEHIRPKIVVVWVGTNNHGHTAEQVTGGIKAIVQLVNERQPQARVVVLGLLPRGQHPNPLREKNRQVNELVRAALAGHPRAHFLDADPGFVHSDGTISHHDMYDYLHLSRLGYTPVCRALHSLLLRLLAQDQGQGAPLLEPAP [PAFAH1B3] | -0.0232 | 0.482 | 1.01 | 50.6 °C | 51 °C | 0.751
3 | MSGESARSLGKGSAPPGPVPEGSIRIYSMRFCPFAERTRLVLKAKGIRHEVININLKNKPEWFFKKNPFGLVPVLENSQGQLIYESAITCEYLDEAYPGKKLLPDDPYEKACQKMILELFSKVPSLVGSFIRSQNKEDYAGLKEEFRKEFTKLEEVLTNKKTTFFGGNSISMIDYLIWPWFERLEAMKLNECVDHTPKLKLWMAAMKEDPTVSALLTSEKDWQGFLELYLQNSPEACDYGL [GSTO1] | -0.0339 | 1.3 | -0.166 | 53.7 °C | 54.2 °C | 0.508
4 | MSGFSTEERAAPFSLEYRVFLKNEKGQYISPFHDIPIYADKDVFHMVVEVPRWSNAKMEIATKDPLNPIKQDVKKGKLRYVANLFPYKGYIWNYGAIPQTWEDPGHNDKHTGCCGDNDPIDVCEIGSKVCARGEIIGVKVLGILAMIDEGETDWKVIAINVDDPDAANYNDINDVKRLKPGYLEATVDWFRRYKVPDGKPENEFAFNAEFKDKDFAIDIIKSTHDHWKALVTKKTNGKGISCMNTTLSESPFKCDPDAARAIVDALPPPCESACTVPTDVDKWFHHQKN [PPA1] | 0.0519 | 0.184 | -1.97 | 54.1 °C | 54.2 °C | 0.43
5 | MSGGKYVDSEGHLYTVPIREQGNIYKPNNKAMADELSEKQVYDAHTKEIDLVNRDPKHLNDDVVKIDFEDVIAEPEGTHSFDGIWKASFTTFTVTKYWFYRLLSALFGIPMALIWGIYFAILSFLHIWAVVPCIKSFLIEIQCISRVYSIYVHTVCDPLFEAVGKIFSNVRINLQKEI [CAV1] | -0.0544 | -2.45 | -3.05 | 57.3 °C | 54.6 °C | -0.297
6 | MSGGSADYNREHGGPEGMDPDGVIESNWNEIVDNFDDMNLKESLLRGIYAYGFEKPSAIQQRAIIPCIKGYDVIAQAQSGTGKTATFAISILQQLEIEFKETQALVLAPTRELAQQIQKVILALGDYMGATCHACIGGTNVRNEMQKLQAEAPHIVVGTPGRVFDMLNRRYLSPKWIKMFVLDEADEMLSRGFKDQIYEIFQKLNTSIQVVLLSATMPTDVLEVTKKFMRDPIRILVKKEELTLEGIKQFYINVEREEWKLDTLCDLYETLTITQAVIFLNTRRKVDWLTEKMHARDFTVSALHGDMDQKERDVIMREFRSGSSRVLITTDLLARGIDVQQVSLVINYDLPTNRENYIHRIGRGGRFGRKGVAINFVTEEDKRILRDIETFYNTTVEEMPMNVADLI [EIF4A2] | -0.2 | -0.202 | -1.09 | 52.1 °C | 51.5 °C | 0.106
7 | MSGIKKQKTENQQKSTNVVYQAHHVSRNKRGQVVGTRGGFRGCTVWLTGLSGAGKTTISFALEEYLVSHAIPCYSLDGDNVRHGLNRNLGFSPGDREENIRRIAEVAKLFADAGLVCITSFISPFAKDRENARKIHESAGLPFFEIFVDAPLNICESRDVKGLYKRARAGEIKGFTGIDSDYEKPETPERVLKTNLSTVSDCVHQVVELLQEQNIVPYTIIKDIHELFVPENKLDHVRAEAETLPSLSITKLDLQWVQVLSEGWATPLKGFMREKEYLQVMHFDTLLDDGVINMSIPIVLPVSAEDKTRLEGCSKFVLAHGGRRVAILRDAEFYEHRKEERCSRVWGTTCTKHPHIKMVMESGDWLVGGDLQVLEKIRWNDGLDQYRLTPLELKQKCKEMNADAVFAFQLRNPVHNGHALLMQDTRRRLLERGYKHPVLLLHPLGGWTKDDDVPLDWRMKQHAAVLEEGVLDPKSTIVAIFPSPMLYAGPTEVQWHCRSRMIAGANFYIVGRDPAGMPHPETKKDLYEPTHGGKVLSMAPGLTSVEIIPFRVAAYNKAKKAMDFYDPARHNEFDFISGTRMRKLAREGENPPDGFMAPKAWKVLTDYYRSLEKN [PAPSS2] | -0.108 | 2.13 | 3.19 | 52.2 °C | 53.1 °C | -0.0222
8 | MSGPTWLPPKQPEPARAPQGRAIPRGTPGPPPAHGAALQPHPRVNFCPLPSEQCYQAPGGPEDRGPAWVGSHGVLQHTQGLPADRGGLRPGSLDAEIDLLSSTLAELNGGRGHASRRPDRQAYEPPPPPAYRTGSLKPNPASPLPASPYGGPTPASYTTASTPAGPAFPVQVKVAQPVRGCGPPRRGASQASGPLPGPHFPLPGRGEVWGPGYRSQREPGPGAKEEAAGVSGPAGRGRGGEHGPQVPLSQPPEDELDRLTKKLVHDMNHPPSGEYFGQCGGCGEDVVGDGAGVVALDRVFHVGCFVCSTCRAQLRGQHFYAVERRAYCEGCYVATLEKCATCSQPILDRILRAMGKAYHPGCFTCVVCHRGLDGIPFTVDATSQIHCIEDFHRKFAPRCSVCGGAIMPEPGQEETVRIVALDRSFHIGCYKCEECGLLLSSEGECQGCYPLDGHILCKACSAWRIQELSATVTTDC [TRIP6] | -0.132 | 0.24 | -0.443 | 52 °C | 52 °C | -0.106
9 | MSGQRVDVKVVMLGKEYVGKTSLVERYVHDRFLVGPYQNTIGAAFVAKVMSVGDRTVTLGIWDTAGSERYEAMSRIYYRGAKAAIVCYDLTDSSSFERAKFWVKELRSLEEGCQIYLCGTKSDLLEEDRRRRRVDFHDVQDYADNIKAQLFETSSKTGQSVDELFQKVAEDYVSVAAFQVMTEDKGVDLGQKPNPYFYSCCHH [RAB24] | -0.172 | -0.25 | -0.316 | 53.8 °C | 54.2 °C | -0.101
10 | MSGSMATAEASGSDGKGQEVETSVTYYRLEEVAKRNSLKELWLVIHGRVYDVTRFLNEHPGGEEVLLEQAGVDASESFEDVGHSSDAREMLKQYYIGDIHPSDLKPESGSKDPSKNDTCKSCWAYWILPIIGAVLLGFLYRYYTSESKSS [CYB5B] | 0.0898 | 1.14 | -0.285 | 57.2 °C | – | -0.0447
11 | MSHGHSHGGGGCRCAAEREEPPEQRGLAYGLYLRIDLERLQCLNESREGSGRGVFKPWEERTDRSKFVESDADEELLFNIPFTGNVKLKGIIIMGEDDDSHPSEMRLYKNIPQMSFDDTEREPDQTFSLNRDLTGELEYATKISRFSNVYHLSIHISKNFGADTTKVFYIGLRGEWTELRRHEVTICNYEASANPADHRVHQVTPQTHFIS [PITHD1] | -0.108 | -1.84 | -2.51 | 56.2 °C | 59.5 °C | 0.0556
12 | MSHLPMKLLRKKIEKRNLKLRQRNLKFQGASNLTLSETQNGDVSEETMGSRKVKKSKQKPMNVGLSETQNGGMSQEAVGNIKVTKSPQKSTVLTNGEAAMQSSNSESKKKKKKKRKMVNDAEPDTKKAKTENKGKSEEESAETTKETENNVEKPDNDEDESEVPSLPLGLTGAFEDTSFASLCNLVNENTLKAIKEMGFTNMTEIQHKSIRPLLEGRDLLAAAKTGSGKTLAFLIPAVELIVKLRFMPRNGTGVLILSPTRELAMQTFGVLKELMTHHVHTYGLIMGGSNRSAEAQKLGNGINIIVATPGRLLDHMQNTPGFMYKNLQCLVIDEADRILDVGFEEELKQIIKLLPTRRQTMLFSATQTRKVEDLARISLKKEPLYVGVDDDKANATVDGLEQGYVVCPSEKRFLLLFTFLKKNRKKKLMVFFSSCMSVKYHYELLNYIDLPVLAIHGKQKQNKRTTTFFQFCNADSGTLLCTDVAARGLDIPEVDWIVQYDPPDDPKEYIHRVGRTARGLNGRGHALLILRPEELGFLRYLKQSKVPLSEFDFSWSKISDIQSQLEKLIEKNYFLHKSAQEAYKSYIRAYDSHSLKQIFNVNNLNLPQVALSFGFKVPPFVDLNVNSNEGKQKKRGGGGGFGYQKTKKVEKSKIFKHISKKSSDSRQFSH [DDX18] | 1.1 | 1.68 | 1.02 | 51 °C | 52 °C | -2.49
13 | MSHVAVENALGLDQQFAGLDLNSSDNQSGGSTASKGRYIPPHLRNREATKGFYDKDSSGWSSSKDKDAYSSFGSRSDSRGKSSFFSDRGSGSRGRFDDRGRSDYDGIGSRGDRSGFGKFERGGNSRWCDKSDEDDWSKPLPPSERLEQELFSGGNTGINFEKYDDIPVEATGNNCPPHIESFSDVEMGEIIMGNIELTRYTRPTPVQKHAIPIIKEKRDLMACAQTGSGKTAAFLLPILSQIYSDGPGEALRAMKENGRYGRRKQYPISLVLAPTRELAVQIYEEARKFSYRSRVRPCVVYGGADIGQQIRDLERGCHLLVATPGRLVDMMERGKIGLDFCKYLVLDEADRMLDMGFEPQIRRIVEQDTMPPKGVRHTMMFSATFPKEIQMLARDFLDEYIFLAVGRVGSTSENITQKVVWVEESDKRSFLLDLLNATGKDSLTLVFVETKKGADSLEDFLYHEGYACTSIHGDRSQRDREEALHQFRSGKSPILVATAVAARGLDISNVKHVINFDLPSDIEEYVHRIGRTGRVGNLGLATSFFNERNINITKDLLDLLVEAKQEVPSWLENMAYEHHYKGSSRGRSKSSRFSGGFGARDYRQSSGASSSSFSSSRASSSRSGGGGHGSSRGFGGGGYGGFYNSDGYGGNYNSQGVDWWGN [DDX3X] | 0.197 | -0.877 | 2.82 | 47.4 °C | 47.4 °C | -0.457
14 | MSI2 | 0.0111 | -0.0604 | -1.64 | 51 °C | 50.8 °C | 0.473
15 | MSIFTPTNQIRLTNVAVVRMKRAGKRFEIACYKNKVVGWRSGVEKDLDEVLQTHSVFVNVSKGQVAKKEDLISAFGTDDQTEICKQILTKGEVQVSDKERHTQLEQMFRDIATIVADKCVNPETKRPYTVILIERAMKDIHYSVKTNKSTKQQALEVIKQLKEKMKIERAHMRLRFILPVNEGKKLKEKLKPLIKVIESEDYGQQLEIVCLIDPGCFREIDELIKKETKGKGSLEVLNLKDVEEGDEKFE [SBDS] | -0.0695 | 1.75 | 2.97 | 50.4 °C | 50.2 °C | -0.0131
16 | MSKPPPKPVKPGQVKVFRALYTFEPRTPDELYFEEGDIIYITDMSDTNWWKGTSKGRTGLIPSNYVAEQAESIDNPLHEAAKRGNLSWLRECLDNRVGVNGLDKAGSTALYWACHGGHKDIVEMLFTQPNIELNQQNKLGDTALHAAAWKGYADIVQLLLAKGARTDLRNIEKKLAFDMATNAACASLLKKKQGTDAVRTLSNAEDYLDDEDSD [OSTF1] | -0.158 | -0.239 | 0.339 | 49.3 °C | 50.7 °C | 0.545

Source: the supplement of paper PMC5998384
